Biological target: LC3B LIR docking site (LDS) mutant (F52A/L53A) (UniProt Q9GZQ8)
Assay: ITC

tepsin LIR motif peptide (residues 185-193)
Kd: > 300 µM

From doi:10.1101/2023.07.18.549521
